For experiment [1], the system named is Bovine capillary endothelial (BCE) cells. In words: Endothelial cell migration assay (Boyden chamber, bFGF-stimulated). Format: cell-based. The following applies: bFGF 10 ng/ml, 4 hours migration; read-out: IC50 of inhibition of bFGF-induced BCE cell migration. The procedure: Bovine capillary endothelial (BCE) cells were harvested from bovine adrenal glands as previously described (33). BCE cells were maintained in DMEM in the presence of 10% bovine calf serum, 1% antibiotics, and 3 ng/ml of bFGF (PeproTech, Rockhill, N.J.). To evaluate endothelial cell migration, a Boyden Chamber-based assay was performed. First, the polycarbonate membranes with […] (Neuro Probe Inc., Cabin John, Md.) were coated with […] of collagen type I following manufacturer's instructions (Becton Dickinson, Bedford, Mass.). […] Each sample was tested in quadruplicate and a representative field in each well was counted at 10 x magnification to determine the number of migrated cells.
Fifty micrograms of the recombinant angiostatin in […] of serum-free DMEM was reduced by incubating with […] of 0.5 M dithiothreitol for 15 minutes at the room temperature. […] The homogeneity of the reduced and alkylated angiostatin was analyzed by SDS-PAGE before being examined for its inhibition on BCE cell migration. The endotoxin concentrations of both native and reduced/alkylated angiostatin were evaluated according to manufacturer's instructions (Associates of Cape Cod, Woods Hole, Mass.). […]

Experiment [2] deals with endothelial cell proliferation. The following applies: previously described / reported; cited from earlier work.

With Angiostatin, the IC50 in experiment [1] is about 0.05 µM.

B1: K4: recombinant plasminogen kringle region 4, expressed in Pichia pastoris (protein)
chain: VQDCYHGDGQSYRGTSSTTTTGKKCQSWSSMTPHRHQKTPENYPNAGLTMNYCRNPDADKGPWCFTTDPSVRWEYCNLKKCSGT
modifications: human
notes: recombinant plasminogen kringle region 4, expressed in Pichia pastoris
Turning to B1, the IC50 in experiment [1] came to 0.5 µM. The “effect on endothelial cell proliferation (in words)” value in experiment [2] is given as “negligible effect on endothelial cell proliferation”.

Values taken from patent US6538103B1, “Lysine binding fragments of angiostatin” (Bristol--Myers Squibb Company, priority 1998, dated 2003).
